Paper PMC6990103 (2019)

Assays:
Experiment in all cases: ELISA
[1] = target: nluc-NP612 fusion protein, SUDV (Sudan ebolavirus (SUDV), UniProt Q9QP77 612-738)
[2] = target: recombinant SUDV Boniface 1976 NP (Sudan ebolavirus (SUDV) Boniface 1976, UniProt Q9QP77 1-738)
[3] = target: recombinant EBOV Kikwit 1995 NP (Zaire ebolavirus (EBOV) Kikwit 1995, UniProt O72142 1-739)
[4] = target: nluc-NP612 fusion protein, EBOV (Zaire ebolavirus (EBOV), UniProt O72142 612-739)

Binder | EC50 [3] [nM] | EC50 [4] [nM] | other results
sdAb SB, biotinylated (from pecan126) (VHH, biotin (singly biotinylated)) VHH: QVKLQQSGGGSVQEGGSLRLSCASSGAFFRAGPMGWYRRAPGNERELVAGISRNGRTIYAPSLKDRFTISRDDDNNILYLQMSDLTPGDTAVYYCNLNVRTAVAGRNDYWGQGTQVTVSS | – | – | EC50 [1]: 635 nM
sdAb SB-gluc fusion (glucibody) (VHH) VHH: QVKLQQSGGGSVQEGGSLRLSCASSGAFFRAGPMGWYRRAPGNERELVAGISRNGRTIYAPSLKDRFTISRDDDNNILYLQMSDLTPGDTAVYYCNLNVRTAVAGRNDYWGQGTQVTVSS | – | – | EC50 [2]: 37 nM
sdAb ZC-gluc fusion (glucibody) (VHH) VHH: KVQLQQSGGGSVTPGGSLRLSCAASGSISDFAAMAWYRQAPGKERDWVGTIFSAGALLYAEPVKGRFTISRDNAKNTVYLQMNSLKPEDTAVYYCRLYAEAIYWGQGTQVTVSS | 13 | – | –
sdAb ZC, biotinylated (from pecan126) (VHH, biotin (singly biotinylated)) VHH: KVQLQQSGGGSVTPGGSLRLSCAASGSISDFAAMAWYRQAPGKERDWVGTIFSAGALLYAEPVKGRFTISRDNAKNTVYLQMNSLKPEDTAVYYCRLYAEAIYWGQGTQVTVSS | – | 186 | –
sdAb ZE-gluc fusion (glucibody) (VHH) VHH: QVQLQESGGGLVQPGGSLRLSCTASGFTLAEYGVGWFRQAPGKERELVALIAVGGTTHSIDSVKGRFTISRDNMKNTVYLQMNSLNVEDTAVYYCNAYSSAYDRNYWGQGTQVTVSS | 31 | – | –
sdAb ZE, biotinylated (from pecan126) (VHH, biotin (singly biotinylated)) VHH: QVQLQESGGGLVQPGGSLRLSCTASGFTLAEYGVGWFRQAPGKERELVALIAVGGTTHSIDSVKGRFTISRDNMKNTVYLQMNSLNVEDTAVYYCNAYSSAYDRNYWGQGTQVTVSS | – | 1030 | –
